Literature values, collected in patent publication US8349318B2, “Use of specifically engineered enzymes to enhance the efficacy of prodrugs” (The Board of Trustees of the University of Illinois, priority 2008, dated 2013).

B1: dNK: Drosophila melanogaster nucleoside kinase, SEQ ID NO:3 (protein)
chain: MAEAASCARKGTKYAEGTQPFTVLIEGNIGSGKTTYLNHFEKYKNDICLLTEPVEKWRNVNGVNLLELMYKDPKKWAMPFQSYVTLTMLQSHTAPTNKKLKIMERSIFSARYCFVENMRRNGSLEQGMYNTLEEWYKFIEESIHVQADLIIYLRTSPEVAYERIRQRARSEESCVPLKYLQELHELHEDWLIHQRRPQSCKVLVLDADLNLENIGTEYQRSESSIFDAISSNQQPSPVLVSPSKRQRVAR
modifications: Drosophila melanogaster
Knecht et al., 2002
  kcat for dC phosphorylation: 16.5 s⁻¹
Compared with dCK
  efficiency for dC phosphorylation, higher than dCK: 2,500 fold
